Measured values as given in patent US20080199443A1.

Legend:
[1] = molecular target: Xenopus GDF5 (wild type, full-length open reading frame expressed from injected mRNA) (Xenopus); test: cell-based or functional assay
[2] = test system: Xenopus GDF5 with a T7 epitope tag (GDF5-T7)

Xenopus Furin, sequence (P29119 whole entry): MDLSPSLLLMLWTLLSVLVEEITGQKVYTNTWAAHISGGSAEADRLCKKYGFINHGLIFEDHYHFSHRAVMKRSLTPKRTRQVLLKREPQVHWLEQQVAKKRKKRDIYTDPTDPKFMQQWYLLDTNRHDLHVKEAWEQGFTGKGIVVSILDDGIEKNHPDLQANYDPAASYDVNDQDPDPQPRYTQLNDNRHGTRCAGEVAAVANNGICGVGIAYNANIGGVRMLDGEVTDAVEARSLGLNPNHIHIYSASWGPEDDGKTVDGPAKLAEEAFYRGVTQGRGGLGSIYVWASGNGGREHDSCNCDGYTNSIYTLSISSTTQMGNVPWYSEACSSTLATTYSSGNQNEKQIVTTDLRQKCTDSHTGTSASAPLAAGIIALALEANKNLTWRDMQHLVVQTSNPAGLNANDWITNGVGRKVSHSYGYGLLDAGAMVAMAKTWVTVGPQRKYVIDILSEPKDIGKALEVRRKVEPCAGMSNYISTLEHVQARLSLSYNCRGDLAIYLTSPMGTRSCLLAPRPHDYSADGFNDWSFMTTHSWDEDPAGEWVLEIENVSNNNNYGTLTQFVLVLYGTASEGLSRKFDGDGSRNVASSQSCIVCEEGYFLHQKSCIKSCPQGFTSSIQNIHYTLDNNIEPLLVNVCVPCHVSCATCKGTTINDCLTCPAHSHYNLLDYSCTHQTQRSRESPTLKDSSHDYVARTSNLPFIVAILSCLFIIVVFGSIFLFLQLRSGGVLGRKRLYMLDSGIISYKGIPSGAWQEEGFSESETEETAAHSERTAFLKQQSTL

Substance	Average DAI (Dorso-Anterior Index), ventralization of Xenopus embryos after co-injection of mRNAs [1]	Average DAI, ventralization of Xenopus embryos; GDF5 mRNA co-injected with Furin and SPC6 mRNAs together [1]	proteolytic processing to the mature peptide; anti-T7 immunoblot of Xenopus oocyte supernatants [2]
Xenopus SPC6A (enzyme)	4.9 DAI	2.4 DAI	
Xenopus Furin			XGDF5 and Vg1 mature peptides could be detected only when mRNAs encoding both Furin and SPC6 were co-injected with the growth factor messages
Xenopus Furin (enzyme)	4.8 DAI	2.4 DAI	
Xenopus SPC6A			XGDF5 and Vg1 mature peptides could be detected only when mRNAs encoding both Furin and SPC6 were co-injected with the growth factor messages
Xenopus SPC4 (enzyme)	4.8 DAI		
